Several values for one entry are separate records, joined by “and”; a condition that tells them apart may be missing. Identical values can stand only once.
Columns and labels:
Experiment in all cases: ProteOn SPR binding of 39S to captured chimeric Her2 variants
[1] = biological target: T1, chimeric human/mouse Her2 variants (Homo sapiens, UniProt P04626, I184M/L181P/L183D/T182V); conditions: variant KO_159-162
T1 construct: His tag; made in house; host or cells: HEK293F (transient, pEBNA vector; captured from culture supernatant)
Text: (§1) The domain II of human HER2 was identified as the epitope of 39S by swapping domains between human and mouse Her2 molecules. Mouse Her2 was chosen as the chimeric partner because it is not recognized by 39S, but shares 85% sequence identity with human HER2. Chimeric variants targeting each domain of HER2 were constructed (see method below) as listed in Table 4, including four knock-out (KO, loss-of-function) variants replacing domain I, II, III, or IV of human HER2 with the mouse counterpart, and one knock-in (KI, gain-of-function) variant grafting the domain II of human HER2 into mouse Her2 molecule. The chimeric variant nomenclature denotes types of variants (KO/KI) and the number of domains swapped. The binding profiles of 39S to these variants were characterized using a SPR based instrument ProteOn™ by capturing variants on sensor surfaces using anti-human and mouse Her2 polyclonal antibodies (see method below). The expression of the variants was monitored by anti-His polyclonal antibody using ProteOn™. […] Therefore, the domain II (amino acid 146-310) of human HER2 was identified as the epitope-containing domain of 39S by both loss-of-function and gain-of-function variants.
(§2) We further refined the epitope of 39S and identified the region of amino acid 192-208 in domain II as the critical epitope region. […] Seven knock-out variants were generated by replacing each of the following human HER2 regions with the mouse counterparts, including amino acids 146-208, 159-162, 171-187, 192-208, 250-261, 276-285, and 295-296. In addition, one knock-in variant was constructed by grafting the region of amino acid 192-208 of human HER2 to the mouse molecule. The variant nomenclature denotes types of variants (KO/KI) and the swapped regions with amino acid numbering. All variants had detectable expression levels by anti-His polyclonal antibody (Table 4). […] The binding of 39S was not impacted when substituting any other regions of human HER2 with mouse amino acids (KO_159-162, KO_171-187, KO_250-261, KO_276-285, and KO_295-296). […] Taken together, the region of amino acid 192-208 in domain II of human HER2 was identified as the functional epitope of 39S.
(§3) The variant nomenclature denotes types of variants (KO/KI) and the swapped regions with amino acid numbering. Amino acid positions were denoted basing on the numbering scheme of mature human HER2 sequences without its signal peptide. The expression levels of all variants were monitored by an anti-His polyclonal antibody. The binding profiles of 39S to these variants were characterized using a SPR based instrument ProteOn™ by capturing variants on sensor surfaces using anti-human and mouse Her2 polyclonal antibodies.
(§4) Construction and expression of chimeric human/mouse Her2 variants were constructed as follows. Briefly, DNAs encoding chimeric human/mouse Her2 variants with a His tag were assembled and amplified by overlapping PCR using human and mouse Her2 plasmids as templates (MedImmune). The assembled DNAs were cloned into the mammalian expression vector pEBNA (MedImmune). HEK293F cells were then transiently transfected with the various constructs using 293fectin and standard protocols according to the manufacturer's instructions (Invitrogen).
(§5) The binding characteristics of 39S to chimeric human/mouse variants were studied using a ProteOn™ XPR36 instrument (BioRad). Standard amine coupling was used to immobilize an anti-human or mouse Her2 polyclonal antibody (R&D System) in 10 mM sodium acetate (pH 5.0) to the surface of a GLC biosensor chip at ˜5000 resonance units (RU) for each channel. The chimeric proteins in cell culture supernatant were injected and captured by anti-human or mouse polyclonal antibodies onto the GLC surface with a ˜200RU response. Anti-HER2 mAb 39S was diluted in phosphate-buffered saline (PBS) (pH 7.4) with 0.005% Tween-20 from 10 nM to 0.625 nM (1:2 dilution), and injected at 100 μL/min for 180 sec with a 600-second dissociation time. […]

[2] = biological target: T2, chimeric human/mouse Her2 variants (Homo sapiens, UniProt P04626, A221T/G222S/P230R/R217G/S214I/V219I); conditions: variant KO_192-208
T2 construct: His tag; made in house; host or cells: HEK293F (transient, pEBNA vector; captured from culture supernatant)
Text: as §1, §2, §3, §4, §5

[3] = biological target: T3, chimeric human/mouse Her2 variants (Homo sapiens, UniProt P04626, H318N/L317P); conditions: variant KO_295-296
T3 construct: His tag; made in house; host or cells: HEK293F (transient, pEBNA vector; captured from culture supernatant)
Text: as §1, §2, §3, §4, §5

[4] = biological target: T4, chimeric human/mouse Her2 variants (Mus musculus, UniProt P70424, A197S/D184L/D202G/E308D/G218R/H204R/I215S/I220V/I273V/L174F/L284P/M185I/N203S/N319H/P182L/P194H/P210S/P318L/R175H/R231P/S223G/T199M/T222A/T299A/V173I/V183T); conditions: variant KI_II, human amino acids 146-310 grafted into mouse Her2; read-out: The binding affinity of 39S (KD)
T4 construct: His tag; made in house; host or cells: HEK293F (transient, pEBNA vector; captured from culture supernatant)
Text: as §1, §2, §3, §4, §5

[5] = biological target: T5, chimeric human/mouse Her2 variants (Homo sapiens, UniProt P04626, A298T/D307E); conditions: variant KO_276-285
T5 construct: His tag; made in house; host or cells: HEK293F (transient, pEBNA vector; captured from culture supernatant)
Text: as §1, §2, §3, §4, §5

- The binding affinity of 39S (KD) [1]: not impacted
- The binding affinity of 39S (KD) [2]: did not bind and No
- The binding affinity of 39S (KD) [3]: not impacted
- Kd [4]: 0.168 nM and 0.163 nM
- The binding affinity of 39S (KD) [5]: not impacted
B1: 39S: lead optimized monoclonal antibody derived from the 1.39.1 antibody; VH SEQ ID NO:15, VL SEQ ID NO:16 (antibody, V domains shown)
VH: EVQLVESGGGLVKPGGSLRLSCAASGFTFSSYSMSWVRQAPGKGLEWVSSISSSSSYIYYADSVKGRFTISRDNAKNSLYLQMNSLRAEDTAVYYCARGGDAYNYYYFDYWGQGTLVTVSS
VL: DIVMTQTPLSLSVTPGQPASISCKSSQSVFFRSNNKNILAWYLQKPGQPPQLLIYWASSRESGVPDRFSGSGSGTDFTLKISRVEAEDVGVYYCQQYFGSPFTFGPGTKVDIK

Source: US10160812B2, “Bispecific HER2 antibodies” (MedImmune, LLC, priority 2014, dated 2018)
